Data on 1 protein can be found in article doi:10.1101/2023.03.23.533910 (bioRxiv, 2023).

This data set concerns the molecule itself. The data set can be described thus: native gel or EMSA. (In general: A gel shift assay detects complexes by their altered migration in electrophoresis.)

B1: 3xHA-tagged SNC1 (natural protein, Arabidopsis thaliana, UniProt O23530 1-1437, looked up)
chain: MMDTSKDDDMEIASSSGSRRYDVFPSFRGEDVRDSFLSHLLKELRGKAITFIDDEIERSRSIGPELLSAIKESRIAIVIFSKNYASSTWCLNELVEIHKCYTNLNQMVIPIFFHVDASEVKKQTGEFGKVFEETCKAKSEDEKQSWKQALAAVAVMAGYDLRKWPSEAAMIEELAEDVLRKTMTPSDDFGDLVGIENHIEAIKSVLCLESKEARIMVGIWGQSGIGKSTIGRALYSKLSIQFHHRAFITYKSTSGSDVSGMKLRWEKELLSEILGQKDIKIEHFGVVEQRLKQQKVLILLDDVDSLEFLKTLVGKAEWFGSGSRIIVITQDRQLLKAHEIDLIYEVEFPSEHLALTMLCRSAFGKDSPPDDFKELAFEVAKLAGNLPLGLSVLGSSLKGRTKEWWMEMMPRLRNGLNGDIMKTLRVSYDRLHQKDQDMFLYIACLFNGFEVSYVKDLLKDNVGFTMLTEKSLIRITPDGYIEMHNLLEKLGREIDRAKSKGNPGKRRFLTNFEDIHEVVTEKTGTETLLGIRLPFEEYFSTRPLLIDKESFKGMRNLQYLEIGYYGDLPQSLVYLPLKLRLLDWDDCPLKSLPSTFKAEYLVNLIMKYSKLEKLWEGTLPLGSLKEMNLRYSNNLKEIPDLSLAINLEELDLVGCKSLVTLPSSIQNATKLIYLDMSDCKKLESFPTDLNLESLEYLNLTGCPNLRNFPAIKMGCSDVDFPEGRNEIVVEDCFWNKNLPAGLDYLDCLTRCMPCEFRPEQLAFLNVRGYKHEKLWEGIQSLGSLEGMDLSESENLTEIPDLSKATKLESLILNNCKSLVTLPSTIGNLHRLVRLEMKECTGLEVLPTDVNLSSLETLDLSGCSSLRSFPLISTNIVWLYLENTAIEEIPSTIGNLHRLVRLEMKKCTGLEVLPTDVNLSSLETLDLSGCSSLRSFPLISESIKWLYLENTAIEEIPDLSKATNLKNLKLNNCKSLVTLPTTIGNLQKLVSFEMKECTGLEVLPIDVNLSSLMILDLSGCSSLRTFPLISTNIVWLYLENTAIEEIPSTIGNLHRLVKLEMKECTGLEVLPTDVNLSSLMILDLSGCSSLRTFPLISTRIECLYLQNTAIEEVPCCIEDFTRLTVLMMYCCQRLKTISPNIFRLTRLELADFTDCRGVIKALSDATVVATMEDHVSCVPLSENIEYIWDKLYRVAYLQEHFSFRNCFKLDRDARELILRSCFKPVALPGEEIPKYFTYRAYGDSLTVIVPQSSLSQNFLRFKACVVVEPLSKGKGFYPFLKVNVGFNGKQYQKSFSKDAELELCKTDHLFFCSFKFRSEDLPSKLNFNDVEFKFCCSNRIKECGVRLMYVSQEENNQQTTRSEKRMRMTSGTSEEDINLPYGLIVADTGLAALNMELSLGQGEPSSSTSLEGEALCVDYMITEEQDKGIPILFPVSGN
Broadly, the stoichiometry N is the number of molecules, sites or subunits per partner or assembly. In the case of B1, the “stoichiometry N” value was around 4.
